For this series, the target named is T1, [4Fe-4S]-NsrR-His6 (anaerobically purified) (Bacillus subtilis (JH642 background), UniProt O07573 1-146).
T1 sequence: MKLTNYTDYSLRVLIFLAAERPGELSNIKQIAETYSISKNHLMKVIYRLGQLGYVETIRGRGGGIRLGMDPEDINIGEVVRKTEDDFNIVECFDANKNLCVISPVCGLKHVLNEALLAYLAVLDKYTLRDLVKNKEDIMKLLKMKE
The series is described as follows: EMSA.

With GCATAACATGTATCTTAAATATTCCTTTCG (ssDNA) [nasD coding strand 30-mer oMN09-489], the binding result is on record as “no binding”.

Source of the values: publication PMC3075490.
